The target of this series is holo-PhuS H209A (Pseudomonas aeruginosa PAO1, UniProt O68880 1-354, H209A). Nature of the series: EMSA.

The record followed here is PMC12033910.

B1: prrF1-50 (5'-biotin) (dsDNA)
DNA 1: AGCAGAAAAGTTTGGCGAAAGCGTTTGACATGGAAATGAGAATCATTATT
DNA 2: AATAATGATTCTCATTTCCATGTCAAACGCTTTCGCCAAACTTTTCTGCT
In the case of B1, the binding result is “binds”.
